Measured values reported in patent publication US20040192898A1.
“And” between values parts separate entries of the source, which are not always exact repeats. Identical values can stand only once.

Tests used:
[1] = target: β-amyloid peptide (1-42) conjugated to BSA (bovine) (UniProt P05067); assay: competition ELISA, BSA-β-amyloid peptide coated, against biotinylated Mu266 (0.6 µg/ml); Exp. III, N56T series
[2] = target: β-amyloid peptide (1-42) conjugated to BSA (bovine) (UniProt P05067); assay: competition ELISA, BSA-β-amyloid peptide coated, against biotinylated Mu266 (0.6 µg/ml); Exp. I, N56S series
[3] = target: β-amyloid peptide (1-42) conjugated to BSA (bovine) (UniProt P05067); assay: competition ELISA, Aβ1-42-BSA coated, against biotinylated Mu266 (0.3 µg/ml); mean of three experiments, second set
[4] = target: β-amyloid peptide (1-42) conjugated to BSA (bovine) (UniProt P05067); assay: competition ELISA, BSA-β-amyloid peptide coated, against biotinylated Mu266 (0.6 µg/ml); Exp. II, N56T series
[5] = target: β-amyloid peptide (1-42) conjugated to BSA (bovine) (UniProt P05067); assay: competition ELISA, BSA-β-amyloid peptide coated, against biotinylated Mu266 (0.6 µg/ml); average of three, N56S series
[6] = target: β-amyloid peptide (1-42) conjugated to BSA (bovine) (UniProt P05067); assay: competition ELISA, BSA-β-amyloid peptide coated, against biotinylated Mu266 (0.6 µg/ml); Exp. II, N56S series
[7] = target: β-amyloid peptide (1-42) conjugated to BSA (bovine) (UniProt P05067); assay: competition ELISA, Aβ1-42-BSA coated, against biotinylated Mu266 (0.3 µg/ml); mean of three experiments, first set
[8] = target: β-amyloid peptide (1-42) conjugated to BSA (bovine) (UniProt P05067); assay: competition ELISA, BSA-β-amyloid peptide coated, against biotinylated Mu266 (0.6 µg/ml); Exp. III, N56S series
Amyloid-beta 1-40 = Amyloid-beta 1-40 (UniProt P05067); assay: SPR, BIAcore 2000; antibody captured, Aβ flowed over
Amyloid-beta 1-42 = Amyloid-beta 1-42 (UniProt P05067); assay: as above
[9] = target: β-amyloid peptide (1-42) conjugated to BSA (bovine) (UniProt P05067); assay: competition ELISA, BSA-β-amyloid peptide coated, against biotinylated Mu266 (0.6 µg/ml); Exp. I, N56T series
[10] = target: β-amyloid peptide (1-42) conjugated to BSA (bovine) (UniProt P05067); assay: competition ELISA as in Example 7, against biotinylated Mu266; N=1
[11] = target: β-amyloid peptide (1-42) conjugated to BSA (bovine) (UniProt P05067); assay: competition ELISA, BSA-β-amyloid peptide coated, against biotinylated Mu266 (0.6 µg/ml); average of three, N56T series
[12] = target: β-amyloid peptide (1-42) conjugated to BSA (bovine) (UniProt P05067); assay: competition ELISA as in Example 7, against biotinylated Mu266; mean, N=3

## Mouse monoclonal antibody 266
[1]
  IC50: 6.4 mg/L
[2]
  IC50: 3.8 mg/L
[3]
  IC50: 3.87 mg/L
[4]
  IC50: 6.4 mg/L
[5]
  IC50: 4.8 mg/L
[6]
  IC50: 4.5 mg/L
[7]
  IC50: 4.7 mg/L
[8]
  IC50: 6.1 mg/L
Amyloid-beta 1-40
  Kd: 4 pM
Amyloid-beta 1-42
  Kd: 4 pM
[9]
  IC50: 4.3 mg/L
[10]
  IC50: 3.8 mg/L and 7.1 mg/L
[11]
  IC50: 5.7 mg/L
[12]
  IC50: 7.6 mg/L and 14 mg/L
